Assay results: patent US20100172907A1 (Hoffmann-La Roche, published 2010)
Numbering of substitutions follows the chain as printed. Groups on a side chain read outwards from the residue. No end group written: not given here. NSMP = not defined here

T1: BSA-conjugated Aβ heptapeptide LVFFAEC (reading uncertain; also: BSA conjugate)
T1 construct: also called Peptide 17-22
T1 peptide: LVFFAEC([NSMP-BSA])

T2: BSA-conjugated Aβ heptapeptide VFFAEDC (C-terminal Cys coupled to NSMP-activated BSA)
T2 construct: also called Peptide 18-23
T2 peptide: VFFAEDC

T3: BSA-conjugated Aβ heptapeptide FFAEDVC (C-terminal Cys coupled to NSMP-activated BSA)
T3 construct: also called Peptide 19-24
T3 peptide: FFAEDVC

T4: BSA-conjugated Aβ heptapeptide AEFRHDC (C-terminal Cys coupled to NSMP-activated BSA)
T4 construct: also called Peptide 2-7
T4 peptide: AEFRHDC

B1: MS-R #7.11 IgG1 (antibody, V domains shown)
VH: QVELVESGGGLVQPGGSLRLSCAASGFTFSSYAMSWVRQAPGKGLEWVSAISGSGGSTYYADSVKGRFTISRDNSKNTLYLQMNSLRAEDTAVYYCARGKGNTHKPYGYVRYFDVWGQGTLVTVSS
VL: DIVLTQSPATLSLSPGERATLSCRASQSVSSSYLAWYQQKPGQAPRLLIYGASSRATGVPARFSGSGSGTDFTLTISSLEPEDFATYYCQQVYSPPHTFGQGTKVEIKR
notes: full-length human IgG1
B2: MSR 3.4.H7 IgG1 (antibody, V domains shown)
VH: QVQLVESGGGLVQPGGSLRLSCAASGFTFSSYAMSWVRQAPGKGLEWVSVISETGKNIYYADSVKGRFTISRDNSKNTLYLQMNSLRAEDTAVYYCARLTHYARYYRYFDVWGQGTLVTVSS
VL: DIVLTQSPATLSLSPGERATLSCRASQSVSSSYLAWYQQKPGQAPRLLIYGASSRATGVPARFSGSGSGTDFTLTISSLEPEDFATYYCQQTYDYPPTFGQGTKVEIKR
notes: full-length human IgG1
B3: MS-R IgG1 8.2.H2 (antibody, V domains shown)
VH: QVELVESGGGLVQPGGSLRLSCAASGFTFSSYAMSWVRQAPGKGLEWVSAISRTGSKTYYADSVKGRFTISRDNSKNTLYLQMNSLRAEDTAVYYCARLLSRGYNGYYHKFDVWGQGTLVTVSS
VL: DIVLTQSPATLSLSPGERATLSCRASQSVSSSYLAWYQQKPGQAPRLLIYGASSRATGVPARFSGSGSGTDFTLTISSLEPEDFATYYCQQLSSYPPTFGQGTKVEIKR
notes: full-length human IgG1
B4: MS-R IgG 8.2.H2 × 8.2.L1 (antibody, V domains shown)
VH: B3 VH
VL: B1 VL with S28R, S31G, S32R, V92L, Y93S, P95Y, H97P
notes: full-length human IgG
B5: MS-R #7.9.H7 IgG1 (antibody, V domains shown)
VH: B1 VH with S52N, G53A, G56T, S57R
VL: B1 VL with Q90L, V92I, S94N, P95M, H97I
notes: full-length human IgG1; also called MAB 31; MS-Roche IgG #7.9.H7
B6: MS-R IgG1 7.9.H3 (antibody, V domains shown)
VH: B1 VH with S52N, G53Y, S54Q, G56N, S57R, T58K
VL: DIVLTQSPATLSLSPGERATLSCRASQSVSSSYLAWYQQKPGQAPRLLIYGASSRATGVPARFSGSGSGTDFTLTISSLEPEDFATYYCLQIYNMPITFGQGTKVEIK
notes: full-length human IgG1; also called 7.9H3 IgG
B7: MSR 7.9.H2 IgG1 (antibody, V domains shown)
VH: B1 VH with S52N, G53A, S54D, G56N, S57R, T58K
VL: B1 VL with Q90L, V92I, S94N, P95M, H97I
notes: full-length human IgG1
B8: MS-R IgG 7.11H2 (antibody, V domains shown)
VH: B1 VH with S52N, G53A, S54N, G56Y, S57K, T58K
VL: B1 VL
notes: full-length human IgG; also called 7.11H2 IgG
B9: MS-R IgG1 3.6.H5 × 3.6.L2 (antibody, V domains shown)
VH: ELVESGGGLVQPGGSLRLSCAASGFTFSSYAMSWVRQAPGKGLEWVSAISESGKTKYYADSVKGRFTISRDNSKNTLYLQMNSLRAEDTAVYYCARLTHYARYYRYFDVWGQGTLVTVSS
VL: B1 VL with S28F, V29L, S31R, S32Y, T86V, V92T, S94N, P95Y, H97P
notes: full-length human IgG1; VH entry starts at QLVESGG
B10: MS-R IgG1 3.6.H8 × 3.6.L2 (antibody, V domains shown)
VH: B9 VH with S52Y, G53S, T55F
VL: B1 VL with S28F, V29L, S31R, S32Y, T86V, V92T, S94N, P95Y, H97P
notes: as for B9
B11: MS-R IgG1 7.12.L1 (antibody, V domains shown)
VH: B1 VH with E3Q, A33G, A50N, G56S
VL: DIVLTQSPATLSLSPGERATLSCRASQYVFRRYLAWYQQKPGQAPRLLISGSSNRATGVPARFSGSGSGTDFTLTISSLEPEDFAVYYCLQLYNIPNTFGQGTKVEIKR
notes: full-length human IgG1
B12: MS-R IgG1 7.2.H4 (antibody, V domains shown)
VH: B1 VH with S52N, G53S, S54K, G56S, S57R, T58I
VL: B6 VL with L90Q, N94S, M95F, I97H
notes: full-length human IgG1
B13: MS-R #7.11.H1×7.2.L1 IgG1 (antibody, V domains shown)
VH: ELVESGGGLVQPGGSLRLSCAASGFTFSSYAMSWVRQAPGKGLEWVSGINAAGFRTYYADSVKGRFTISRDNSKNTLYLQMNSLRAEDTAVYYCARGKGNTHKPYGYVRYFDVWGQGTLVTVSS
VL: B1 VL with S28Y, S30D, S31R, S32T, V92I, P95F
notes: full-length human IgG1; VH entry starts at QLVESGG; also called MAB 11
B14: MS-R IgG1 7.4.H2 × 7.2.L1 (antibody, V domains shown)
VH: B13 VH with G48A, A51Y, A52N, F54A, T56I
VL: B1 VL with S28Y, S30D, S31R, S32T, V92I, P95F
notes: as for B9
B15: MS-R IgG1 7.11.H1 × 7.11.L1 (antibody, V domains shown)
VH: B13 VH
VL: B1 VL with S28R, V29I, S30L, S31R, S32I
notes: as for B9
B16: MS-Roche #7.4H2×7.12L2 Fab (Fab, V domains shown)
VH: B13 VH with E1Q, G48A, A51Y, A52N, F54A, T56I
VL: B11 VL with Y28R, V29F, R31Y, R32K
notes: cross-cloned Fab
B17: MS-Roche #7.9H2×7.12L2(L1+2) Fab (Fab, V domains shown)
VH: B13 VH with E1Q, G48A, A52D, F54N, T56K
VL: B11 VL with Y28R, V29F, R31Y, R32K, V86T, L92I, I95M, N97I
notes: VL assembled from the legend's definition and cloning strategy 3
B18: MS-Roche #8.1H1×8.2L1 Fab (Fab, V domains shown)
VH: QLVESGGGLVQPGGSLRLSCAASGFTFSSYAMSWVRQAPGKGLEWVSAISRSGSNIYYADSVKGRFTISRDNSKNTLYLQMNSLRAEDTAVYYCARLLSRGYNGYYHKFDVWGQGTLVTVSS
VL: B1 VL with S28R, S31G, S32R, V92L, Y93S, P95Y, H97P
notes: cross-cloned Fab
B19: MS-Roche #7.11H2×7.2L1(L1) Fab (Fab, V domains shown)
VH: B13 VH with E1Q, G48A, A52N, F54Y, R55K, T56K
VL: B1 VL with S28Y, S30D, S31R, S32T, V92I, P95F

molecular target: T5, Aβ (1-42) peptide (human); assay: SPR, immobilized fibers
T5 construct: also called Aβ1-42 fibers; Aβ4
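Throughout, for OD ratio 17-22/BSA: ELISA binding of human antibody (10 or 2 µg/ml) to plate-coated BSA–peptide conjugates, detected with HRP anti-human Ig and TMB colour, mock-treated BSA as negative control.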
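Throughout, for OD ratio 18-23/BSA: ELISA binding of human antibody (10 or 2 µg/ml) to plate-coated BSA–peptide conjugates, detected with HRP anti-human Ig and TMB colour, mock-treated BSA as negative control.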
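Throughout, for Peptide-ratio 17-22/2-7: ELISA binding of human antibody (10 or 2 µg/ml) to plate-coated BSA–peptide conjugates, detected with HRP anti-human Ig and TMB colour, mock-treated BSA as negative control.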
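Throughout, for Peptide-ratio 18-23/2-7: ELISA binding of human antibody (10 or 2 µg/ml) to plate-coated BSA–peptide conjugates, detected with HRP anti-human Ig and TMB colour, mock-treated BSA as negative control.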
Description: (§1) Biacore2000 and Biacore3000 instruments were used for these measurements. Aβ1-40 and Aβ1-42 fibers were generated in vitro by incubation of synthetic peptides at a concentration of 200 μg/ml in 10 mM Na-acetate buffer (pH 4.0) for three days at 37° C. […] For binders with slow kinetics KD values were calculated by curve fitting of the time-dependent sensor responses, i.e. from the ratio of koff/kₒₙ. Binders with fast kinetics were analyzed by fitting the concentration-dependent sensor responses at equilibrium (adsorption-isotherms). KD values were calculated from the Biacore sensograms based on the total Fab concentration as determined by a protein assay. […] Briefly, time-dependent protein binding to Aβ1-40 fibers immobilized on the Biacore chip was measured during the association phase under mass-limited conditions at different flow rates of the analyte solution.

| Binder | Kd [pM] |
| --- | --- |
| B1 | 5700 |

molecular target: T6, human Aβ (1-40) peptide (human); assay: SPR, immobilized fibers
T6 construct: also called Aβ1-40 fibers
Description: as §1

| Binder | Kd [pM] |
| --- | --- |
| B1 | 2300 |

Molecular target: T1, BSA-conjugated Aβ heptapeptide LVFFAEC
Assay: ELISA
Description: (§2) 50 μl of NSMP activated BSA (6.7 mg/ml) was diluted with 50 μl of PBS, 0.1% sodium azide and 10 μl of peptide solution (1 mM in DMSO) was added. As negative control activated BSA was mock-treated without peptide addition. After 4 hrs at room temperature the reaction was stopped by addition of 10 μl of 10 mM Cystein. An aliquot of the conjugate reaction mixture was diluted 1:100 with 0.1M sodium bicarbonate buffer and immediately filled into the wells (100 μl) of ELISA plates (Nunc Immuno-Plate). After standing 16 hrs at 4° C. 100 μl blocking buffer (as above) was added to each well and incubated for another 30 minutes. The plates were washed with 2×300 μl/well TBST (as above) and filled with 100 μl antibody at 10 μg/ml or 2 μg/ml in blocking buffer. The plates were kept 16 hours at 4° C. and washed with 2×300 μl TBST. 100 μl/well HRP-conjugated anti-human Ig H+L (Pierce, dilution 1:1000 with blocking buffer) was added and incubated for 1 hour at ambient temperature. The plates were washed with 3×300 μl/well TBST. Colour development was started by addition of 100 μl tetra-methyl benzidine/hydrogen peroxide reagent.

| Binder | OD ratio 17-22/BSA | Peptide-ratio 17-22/2-7 |
| --- | --- | --- |
| B2 | 3 | 0.14 |
| B3 | 10 | 0.56 |
| B4 | 20 | 1.54 |
| B5 | 5 | 0.17 |
| B6 | 6 | 0.46 |
| B7 | 5 | 0.38 |
| B8 | 6 | 0.6 |
| B9 | 7 | 0.64 |

Molecular target: T2, BSA-conjugated Aβ heptapeptide VFFAEDC
Assay: ELISA
Description: as §2

| Binder | OD ratio 18-23/BSA | Peptide-ratio 18-23/2-7 |
| --- | --- | --- |
| B2 | 16 | 0.73 |
| B3 | 15 | 0.83 |
| B4 | 25 | 1.92 |
| B5 | 16 | 0.53 |
| B6 | 8 | 0.62 |
| B7 | 8 | 0.62 |
| B8 | 7 | 0.7 |
| B9 | 9 | 0.82 |

Molecular target: T3, BSA-conjugated Aβ heptapeptide FFAEDVC
Assay: ELISA
Description: as §2

| Binder | OD ratio 19-24/BSA | Peptide-ratio 19-24/2-7 |
| --- | --- | --- |
| B2 | 15 | 0.68 |
| B3 | 14 | 0.78 |
| B4 | 25 | 1.92 |
| B5 | 10 | 0.33 |
| B6 | 6 | 0.46 |
| B7 | 6 | 0.46 |
| B8 | 6 | 0.6 |
| B9 | 8 | 0.73 |

Molecular target: T4, BSA-conjugated Aβ heptapeptide AEFRHDC
Assay: ELISA
Description: as §2

| Binder | OD ratio 2-7/BSA |
| --- | --- |
| B2 | 22 |
| B3 | 18 |
| B4 | 13 |
| B5 | 30 |
| B6 | 13 |
| B7 | 13 |
| B8 | 10 |
| B9 | 11 |

molecular target: T5, Aβ (1-42) peptide; assay: SPR Scatchard, higher affinity (bivalent)
Description: (§3) Binders with fast kinetics were analyzed by fitting the concentration-dependent sensor responses at equilibrium (adsorption-isotherms). KD values were calculated from the Biacore sensograms based on the total Fab concentration as determined by a protein assay. […] Briefly, time-dependent protein binding to Aβ1-40 fibers immobilized on the Biacore chip was measured during the association phase under mass-limited conditions at different flow rates of the analyte solution.
(§4) KD values of IgG binding to Aβ1-40 and Aβ1-42 fibers were determined in the Biacore. Briefly, a kinetic model for the stepwise formation of a bivalent complex was used, and KD values were calculated by Scatchard type analysis of equilibrium binding. Due to the very slow association process at low antibody concentration (several hours to reach equilibrium) equilibrium binding data were obtained by extrapolation of the association curves to long time intervals. The on- and off rates for the formation of the monovalent and bivalent complex were determined via the curve fit procedure and used for the extrapolation. Based on these Req values a Scatchard analysis was performed and KD values for the formation of the monovalent and the bivalent complex were determined.

| Binder | Kd [pM] |
| --- | --- |
| B2 | 100 to 300 |
| B3 | 120 to 920 |
| B5 | 240 to 700 |
| B10 | 220 to 820 |
| B11 | 740 to 2900 |
| B12 | 100 to 660 |
| B13 | 150 to 670 |
| B6 | 100 to 400 |
| B14 | 120 to 560 |
| B7 | 110 to 380 |
| B15 | 130 to 700 |
| B9 | 200 to 950 |

molecular target: T6, human Aβ (1-40) peptide; assay: SPR Scatchard, higher affinity (bivalent)
Description: as §3, §4

| Binder | Kd [pM] |
| --- | --- |
| B2 | 100 to 300 |
| B3 | 160 to 1000 |
| B5 | 250 to 690 |
| B10 | 220 to 950 |
| B11 | 1200 to 3500 |
| B12 | 90 to 300 |
| B13 | 140 to 660 |
| B6 | 100 to 500 |
| B14 | 120 to 630 |
| B7 | 120 to 420 |
| B15 | 110 to 700 |
| B9 | 200 to 1030 |

molecular target: T5, Aβ (1-42) peptide; assay: SPR, immobilized fibers; remark: another data set of the same source
Description: as §1

| Binder | Kd [pM] |
| --- | --- |
| B1 | 5700 |

molecular target: T6, human Aβ (1-40) peptide; assay: SPR, immobilized fibers; remark: another data set of the same source
Description: as §1

| Binder | Kd [pM] |
| --- | --- |
| B1 | 2300 |

molecular target: T5, Aβ (1-42) peptide; assay: SPR, kinetic fit, immobilized fibers;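 note: surface plasmon resonance on a Biacore chip bearing in vitro formed Aβ1-40 or Aβ1-42 fibers, KD taken as koff/kon by fitting time-resolved sensor responses, based on total Fab concentration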
Description: as §1

| Binder | Kd [pM] |
| --- | --- |
| B16 | 1800 |
| B17 | 400 |
| B18 | 1600 |
| B19 | 600 |

molecular target: T6, human Aβ (1-40) peptide; assay: SPR, kinetic fit, immobilized fibers;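 note: surface plasmon resonance on a Biacore chip bearing in vitro formed Aβ1-40 or Aβ1-42 fibers, KD taken as koff/kon by fitting time-resolved sensor responses, based on total Fab concentration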
Description: as §1

| Binder | Kd [pM] |
| --- | --- |
| B16 | 1400 |
| B17 | 400 |
| B18 | 1300 |
| B19 | 1000 |
